Data taken from PMC5727127, “H3K14ac is linked to methylation of H3K9 by the triple Tudor domain of SETDB1” (Nature Communications, 2017).

Columns and labels:
[1] = target: 3TD of SETDB1, W358A mutant, as used in ITC and crystals (UniProt Q15047); assay: ITC; 25 °C, VP-ITC, 20 mM Tris/HCl pH 7.0, 150 mM NaCl; protein 50 to 100 μM, ligand 1–2 mM; one-site binding model
[2] = target: H3K9me2/K14ac peptide in solution (ITC; crystal with W358A), limits not stated; assay: ITC; conditions: read off a plot
[3] = target: H3K9me3/K14ac peptide in solution (ITC; crystals); assay: ITC; conditions: read off a plot
[4] = target: H3K9me1/K14ac peptide in solution (ITC); assay: ITC; conditions: read off a plot

## H3K9me3/K14ac peptide in solution (ITC; crystals)
[1]
  fold reduction of binding against wildtype 3TD: 2 fold

## triple Tudor domain (3TD) of SETDB1, wildtype, as used in solution (ITC, NMR, crystals) (from UniProt Q15047) Y268A
[2]
  ratio to parent: 1.1
[3]
  ratio to parent: 0.18
[4]
  ratio to parent: 1.5

## H3K9me2/K14ac peptide in solution (ITC; crystal with W358A), limits not stated
[1]
  fold reduction of affinity against wildtype 3TD: 18 fold
